{"source": "patent US20250136688A1", "about": "(Janssen / Centocor, published 2025)", "binders": {"B1": {"name": "NPP3B815 (NPP3B56×CD3B2030-N106A-spFv) (bispecific antibody, human IgG1, kappa, L234A L235A)", "chain": "EIVLTQSPATLSASPGERVTLSCSASSSVSYMNWYQQKPGCAPRRWIYDSSKLASGVPARFSGSGSGRDYTLTISSLEPEDFAVYYCQQWSRNPPTFGGGTKVEIKGGGSGGSGGCPPCGGSGGQVQLVQSGAEVKKPGSSVKVSCKASGYTFTRSTMHWVKQAPGQGLEWIGYINPSSAYTNYNQKFQGRVTLTADKSTSTAYMELSSLRSEDTAVYYCASPQVHYDYAGFPYWGCGTLVTVSSEPKSSDKTHTCPPCPAPEAAGGPSVFLFPPKPKDTLMISRTPEVTCVVVSVSHEDPEVKFNWYVDGVEVHNAKTKPREEQYNSTYRVVSVLTVLHQDWLNGKEYKCKVSNKALPAPIEKTISKAKGQPREPQVYTLPPSREEMTKNQVSLWCLVKGFYPSDIAVEWESNGQPENNYKTTPPVLDSDGSFFLYSKLTVDKSRWQQGNVFSCSVMHEALHNHYTQKSLSLSPGK", "heavy": "EVQLVESGGGRVKPGGSLRLSCAASGFTFSDYSMNWVRQAPGKGLEWVSSISSISSYVKYADSVKGRFTMSRDNAKNSLFLQMNSLRDEDMAVYYCARGHYFDYWGQGTLVTVSSASTKGPSVFPLAPSSKSTSGGTAALGCLVKDYFPEPVTVSWNSGALTSGVHTFPAVLQSSGLYSLSSVVTVPSSSLGTQTYICNVNHKPSNTKVDKKVEPKSCDKTHTCPPCPAPEAAGGPSVFLFPPKPKDTLMISRTPEVTCVVVSVSHEDPEVKFNWYVDGVEVHNAKTKPREEQYNSTYRVVSVLTVLHQDWLNGKEYKCKVSNKALPAPIEKTISKAKGQPREPQVYTLPPSREEMTKNQVSLSCAVKGFYPSDIAVEWESNGQPENNYKTTPPVLDSDGSFFLVSKLTVDKSRWQQGNVFSCSVMHEALHNRFTQKSLSLSPGK", "light": "not shown", "notes": "Heavy Chain 1 = anti-CD3 spFv-Fc (knob); Heavy Chain 2 and Light Chain = anti-ENPP3 Fab arm NPP3B56 (hole); IgG1 with L234A, L235A, D265S; also called ENPP3×CD3"}}, "biological_target": "T1, cyno ENPP3 (cynomolgus monkey, UniProt A0A2K5TKP4 1-874)", "T1 sequence": "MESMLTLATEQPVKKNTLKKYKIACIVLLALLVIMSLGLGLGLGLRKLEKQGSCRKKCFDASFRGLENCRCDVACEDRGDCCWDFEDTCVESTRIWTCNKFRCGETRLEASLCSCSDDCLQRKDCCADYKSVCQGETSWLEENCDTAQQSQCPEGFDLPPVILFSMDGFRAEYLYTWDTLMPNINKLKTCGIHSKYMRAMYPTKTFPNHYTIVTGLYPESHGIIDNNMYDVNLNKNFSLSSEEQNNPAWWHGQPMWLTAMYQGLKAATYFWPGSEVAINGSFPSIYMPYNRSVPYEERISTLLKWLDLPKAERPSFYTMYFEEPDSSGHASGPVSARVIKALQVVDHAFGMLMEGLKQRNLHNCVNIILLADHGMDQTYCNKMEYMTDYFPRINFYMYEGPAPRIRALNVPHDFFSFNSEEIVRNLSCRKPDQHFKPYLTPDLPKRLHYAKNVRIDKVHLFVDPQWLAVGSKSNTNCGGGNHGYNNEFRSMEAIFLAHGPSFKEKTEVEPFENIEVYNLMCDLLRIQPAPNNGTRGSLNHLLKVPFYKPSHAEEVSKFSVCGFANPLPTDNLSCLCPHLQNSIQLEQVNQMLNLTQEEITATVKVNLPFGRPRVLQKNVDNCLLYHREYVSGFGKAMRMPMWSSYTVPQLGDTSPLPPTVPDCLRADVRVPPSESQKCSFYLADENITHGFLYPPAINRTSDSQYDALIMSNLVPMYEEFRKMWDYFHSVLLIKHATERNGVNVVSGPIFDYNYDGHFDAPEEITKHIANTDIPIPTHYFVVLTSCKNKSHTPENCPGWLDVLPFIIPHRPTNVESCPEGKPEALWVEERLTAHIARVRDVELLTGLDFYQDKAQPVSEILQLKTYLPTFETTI", "test": "cell-based or functional assay", "data": [{"binder": "B1", "values": [{"measurement": "Cytotox. EC50, human T cells, HepG2-KO cyno ENPP3-OE cells, E:T 3:1", "value": 0.079, "unit": "nM"}, {"measurement": "T-cell activation EC50, human T cells, HepG2-KO cyno ENPP3-OE cells, E:T 3:1", "value": 0.023, "unit": "nM"}]}]}
